We go through 41 sequences from the nanobody polyreactivity screen of Harvey et al. (2022).

This series can be described thus: yeast display, Sf9 membrane polyspecificity reagent, FACS + sequencing; frameworks hold sequencing errors. In short, it runs like this:
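Synthetic nanobody libraries on Saccharomyces cerevisiae BJ5465 were galactose-induced for 36–48 hours, stained 1 hour at 4 °C with 10% biotinylated, detergent-solubilized Sf9 membrane reagent and enriched on streptavidin microbeads. FACS then separated cells into low and high (top ~1%) gates by anti-HA (expression) and streptavidin (reagent binding) fluorescence. Genes were colony-PCR amplified, MiSeq 2 × 250 sequenced and CDR-length filtered. A clone's polyreactivity label is that of its gate of origin.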
Regarding “QVQLVESGGGVVQAGGSLRLSCAASGRTSYWYAKGCYRQAPGKERELVADISWSGGSTYYADSVKGRFTISRDNAKNTVYLQMNSMKPEDTAVYYCNAAEQKYSIYYAFDTGPYDYWGQGTQVTVSS”, the “polyreactivity (PSR sort gate)” value was “low polyreactivity”.
“QVQLVESGGGVVQAGGSLRLSCAASGSIFAGNAMGGSRQAPGKERELVAAITFSAGRTSYADSVKGRFTISRDNAKNTVYFQMNSLKPEDTAVYYCNALLTVRHVKSDYDYWGQGTQVTVSS”: the “polyreactivity (PSR sort gate)” value is “low polyreactivity”.
As to “QVQLVESGGGVVQAGGSLRLSCAASGSIFRQNTMGWYRQAPGKERELVAAISSGGSTYYADSVKGRFTISRDNAKNTVYLQMNSPKPEDTAVYYCAAYHSFVWGDDYWGQGTQVTVSS”, the “polyreactivity (PSR sort gate)” value is reported as “low polyreactivity”.
Take “QVQLVESGGGVVQAGGSLRLSCAASGSILNNYAMGWYRPAPGKERELVAAISSSGGTNYADSVKGRFTISRDNAKNTVFLQMNSLKPEDTAVYYCNADVLDGGYVYWGQGTQVTVSS”: the “polyreactivity (PSR sort gate)” value is on record as “low polyreactivity”.
As for “QVQLVESGGGVVQAGGSLRLSCAASGSIYSQYAMGWYRQAPGTERELVASISRRGGRTYYADSVKGRFTISRDNAKNTVYLQMNSLKPEETAVYYCAALDTAGPYNTLDIYDHWGQGTQVTVSS”, the “polyreactivity (PSR sort gate)” value was “high polyreactivity”.
As for “QVQLVESGGGVVQAGGSLRLSCAASGSTFGHNAMGWYRQAPGKERELVAVITSGGSTYYADSVKGRFTISRDNAKNTVYLQMNSLKPEDTAVYFCATDGGNSATVRYVASDYWGQGTQVTVSS”, the “polyreactivity (PSR sort gate)” value is on record as “high polyreactivity”.
For “QVQLVESGGGVVQAGGSLRLSCAASGSTFHYYAMGWYRQAHGKERELVAAISYSSGSTYYADSVKGRVTISRDNAKNHVYLQMISLKPEDTAVYYCATESYSYYIHTTYYYWGQGTQVTLSS”, the “polyreactivity (PSR sort gate)” value is on record as “low polyreactivity”.
As for “QVQLVESGGGVVQAGGSLRLSCAASGSTFYLYDMGWYRQEPGKERELVATITSGTSTTYADSVKGRYTISRDNAKNTVYLQMNSLKPEDTAVYYCNATDVGIITVGYGHGGYYWGQGTQVTVSS”, the “polyreactivity (PSR sort gate)” value is listed as “low polyreactivity”.
Under “QVQLVESGGGVVQAGGSLRLSCAASGSTLARYAMGWYRQSPGKERELVAAISSDGRTYYADSVKGRFTISRDNAKNTVYLQMNSLKPEDTAVYYCSAVGKPGVYQEGDYWGQGTQVTVSS” stands “high polyreactivity”; under “QVQLVESGGGVVQAGGSLRLSCAASGYIFFANAMGWYRQAPGKERELVAAISSDGRTYYADSVKGRFTISRDNANNTVYLQMNSLKPEDTAVYYSADYFSGLTYGYYVAGYDYWGQGTQVTVSS”, “low polyreactivity”; under “QVQLVESGGGVVQAGGSLRLSCAATGRIFGVYAMGWYRQAPGKERELVAAISSTGGSTYYADSVKGRFTISRDNAKNTVYLQMNSLKPEDTAVYYCEYDYWGQGSQVTVSS”, “low polyreactivity”.
“QVQLVESGGGVVQAGGSLRLSCAGSGFTFPSYAMGWYRQAPGKERELVAAISVGGGSTYYADSVKGRFTISRDKAKNTVYLQMNSLKPEDTAVYYCNADYWYWVWLVGGNVDLDYWGQGTQVTVSS”: the “polyreactivity (PSR sort gate)” value is “high polyreactivity”.
As to “QVQLVESGGGVVQAGGSLRLSCAGSGRTFPYYAVGWYRQAPGKERELVAVISSADSTNYADSVKGRFTISRDNAKNTVYLQMNSLKPEDTAVYYCADDAVYYGDDYWGQGTQVTVSS”, the “polyreactivity (PSR sort gate)” value is “low polyreactivity”.
In the case of “QVQLVESGGGVVQAGGSLRLSSAASGRIIRYYTMGWYRQAPGKERELVAAIRTYGGRTYYADSVKGRFTISRDNAKNSVYLQMNSLKPEDTAVYYCAADGGRPRYDSWGQGTQVTVSS”, the “polyreactivity (PSR sort gate)” value is recorded as “high polyreactivity”.
Regarding “QVQLVESGGGVVQAGGSLRLTCAASGRTCPIYAMGWYRQAPGKERELVATITWNDGNTYYADSVKGRFTISRDNAKNTVYLQMNCLKPEDTAVYYCAAKGGWPWHYHYQKNSEYDYWGQGTQVTVSS”, the “polyreactivity (PSR sort gate)” value was “low polyreactivity”.
Under “QVQLVESGGGVVQAGGSLRLTCAASVSIFASNAMGWYRQAPGKEREFVAAITWRTDRTYYADSVKGRFTISRDNAKNTVYLQMNSLKPEDTAVYYCAADLLPLYDYWGQGTQVTVSS” stands “high polyreactivity”; under “QVQLVESGGGVVQAGGTLRLSCAASGINFIDNTMGWYRQAPGKEREFVATISANSDGTYYADSVKRRFTISRDNAKKTVYLQMNSLKPEETAVYYWGQGTQVTVSS”, “low polyreactivity”; under “QVQLVESGGGVVQAGRSLRLSCAASGSTFQPYAMGSYRQAPGKEREFVATISGSAGSTYYADSVKGSFKISRDNAKNTVYLQMTSLKPEDTAVYYCNADSGWFGYDYWGQGTQVTVSS”, “low polyreactivity”.
Take “QVQLVESGGGYVQAGGSLRLSCAASGSTFRYYAMGWYRQAPGKEREFVASITQSGGSTYYADSVMGRFTISRDNAKNTVYLQMISLKPEDTAVYYCAADVYSWVYLMDYWGQGTQVTVSS”: the “polyreactivity (PSR sort gate)” value is given as “low polyreactivity”.
For the sequence “QVQLVESGGLLVQAGGSIRLRCDASGIILRGYSLGWYRQAPGKERELVASISRGGSTNYADSVKGRFTISRDNAKTTVYLQMNSLKPEDTAVYSCNARGCNGRSDYDYWGLGTQVTVSS”, the “polyreactivity (PSR sort gate)” value is reported as “high polyreactivity”.
For “QVQLVESGGLLVQAGGSLRLSCAASGRIFTHNATGWYRQAPGKERELVAAISYSGVSTYYADSVKGRFTISRDNAKNTVYLQMNSLKPEDTAVYYCARRYWYPDAFYRYDYWGQGTQVTVSS”, the “polyreactivity (PSR sort gate)” value is given as “low polyreactivity”.
On to “QVQLVESGGLLVQGGGILRLSCAASGRILQGYAMGWSRQAPGKERELVDAISSGGRTYYADSVKGRFTISRDNAKNNYYLQMNSLNPDDTAVYYCAAGECWRIHAYSDDFWVQGTQVTVSS”, for which the “polyreactivity (PSR sort gate)” value is “high polyreactivity”.
“QVQLVESGGRLDQAGGSLRLSCAASASTFKEYPMGWYRQAPGKERELVAAISKSGDSTYYADSVKGRFTISRDNAKNTVYLQMNSLKPEDTAVYYCAADTFSFRWSDYWGLGTQVTVSS”: the “polyreactivity (PSR sort gate)” value is listed as “low polyreactivity”.
As for “QVQLVESGGRLFQAGGSLRLSCAASGRTWGYEMGWYRQATGKERELVAAIRNGASTYYADSVKGRFTISRDNAKKTVYFHMNSRKPEDTAVYYCDADYTVRVVATYDYWGQGTQVTVSS”, the entry is “low polyreactivity”.
Take “QVQLVESGGRLGQAGGSLRISCAASGGTFWYYDMGWYRQAPGKERELVAAISSGGNTYYADSVKGRFTISRDNAKITVYLQMNSLKPEDTAVYYCAALPKYGSYYYYPPFDYDYWGQGTQVTVSS”: the “polyreactivity (PSR sort gate)” value was “low polyreactivity”.
For the sequence “QVQLVESGGRLLQAGGSLRLSCAASGRTFRRYAMGWYRPAPGKERELLAAISASGGSTYYADSVKGRFTISRDNAKNTVYLQMNSLKPEDTAVYYCAADWYSYLHGTKYGYWGQGTQVTVSS”, the “polyreactivity (PSR sort gate)” value was “high polyreactivity”.
“QVQLVESGGRLVQAGGILRLSCAASGRIFAYYAMGWYRHSPGKERELVAAINWSGDGTNYADSVKGRFTISRDNEKNSVYLQMNSLKPEDTAVYYWNADWTSYGFGTRLDYWGQGTQVTVSS”: the “polyreactivity (PSR sort gate)” value is on record as “low polyreactivity”.
For the sequence “QVQLVESGGRLVQAGGRLRLSCAASGRIFRYYTLGWYRQAPGKERELVAAITRRGGITNYADSVKGRFTISRDNAKNTVYLQMNSLKPEDTAVYYCAAKYVSQGYDYWGQGTQVTVSS”, the “polyreactivity (PSR sort gate)” value was “high polyreactivity”.
As for “QVQLVESGGRLVQAGGSHRLRCAASGFIFKHNAMGWYRQAPGQEREFVARISWSGGSTRYADSVKGRFTISRDNAKNTVYLQMNSLKPEDTAVYYCAADQLGNDMDYWGQGTQVTVSS”, the entry is “low polyreactivity”.
Under “QVQLVESGGRLVQAGGSLRISCAASGSTFNGNVIVWSRQAPGKERELVAGISKSGGTTYYADSVKGRFTISRDNAKNTVYLQMNSLKPEDTAVYYCAARGRVRYYPQYDYWGQGTQVTVSS” stands “high polyreactivity”; under “QVQLVESGGRLVQAGGSLRLICAASGGIFGFNAMGWYRQAPGKERELVADISDGVRTNYADSVKWRFTISRDNAKNTVFLQMNSLKPEDTAVNYCATDGVYYVDGSWTLGYWGLGTQVTVSS”, “low polyreactivity”; under “QVQLVESGGRLVQAGGSLRLICAASGITYYEYAMGWYRQAPGKERELVAAITSGGTTNYADSVNGRFTISLDNAKNTVYLQMNSLKPEDTAVYFCAADLIGYSYPDEYYGKGEYDYWGQGTQVTVSS”, “low polyreactivity”.
In the case of “QVQLVESGGRLVQAGGSLRLICAASGRIFKQYAMGWYRQSPGKERELVARITGSGSRTYYADSVKGRFTISRDNAKITVYIQMKSLKPEDTAVYYCAKDRYYGKRGGAWYDYWGQGTQVTVSS”, the “polyreactivity (PSR sort gate)” value is listed as “low polyreactivity”.
Take “QVQLVESGGRLVQAGGSLRLRCAASGSTIPYNAMGWYRQAPGKERELLAAITSGGSTNYADSVKGRFTISRDNAMNTVYLQMNSLKPEDTAVYYCNADSSGWFPFDYWGQGTQVTVSS”: the “polyreactivity (PSR sort gate)” value was “low polyreactivity”.
As to “QVQLVESGGRLVQAGGSLRLSCAASGFIFDSYAMGWYRQAPGKERELVAAISWSGGRTYYADSVKGRFTISRDNAKNTVYLQMNSLKPEDTAVYYCNVRTKLSTSYDYWGQGTQVTVSS”, the “polyreactivity (PSR sort gate)” value is given as “high polyreactivity”.
Regarding “QVQLVESGGRLVQAGGSLRLSCAASGFIFEWNAKGWYRQAPGKERELVASITFGGGNTYYADSVKGRFTISRDYAQNTDYLQMNSLKPEDTAVYYCAVDYGYWRDSIALGEFDYWGQGTQVTVSS”, the “polyreactivity (PSR sort gate)” value is “low polyreactivity”.
Regarding “QVQLVESGGRLVQAGGSLRLSCAASGFTFPTYAMGWYRQAPGKERELVAAITRGGSTYYADSVKGRFTISRDNAKNTVYLQMNSLKPEDTAVYYCAADDPWYEEDYWGQGTQVTVSS”, the “polyreactivity (PSR sort gate)” value is “low polyreactivity”.
For “QVQLVESGGRLVQAGGSLRLSCAASGIIFSGYAMGRYRPAPGTVREFVAAIDSVTSTYYADSVKGRFTTSRDNANNTVYLQMISLKPEVTAVYYCNARSDCTWYTLDYWGQGTQVTVSS”, the “polyreactivity (PSR sort gate)” value is recorded as “high polyreactivity”.
In the case of “QVQLVESGGRLVQAGGSLRLSCAASGIIFVSYMGWYIQAPGQERELVAAIRWSGGRTYYADSVKGRFTISRDNAKNTVYLQMTSLKPEDTAVYNCATAPYICAYSLPHHDSWGQGTQVTVSS”, the “polyreactivity (PSR sort gate)” value is on record as “high polyreactivity”.
Turning to “QVQLVESGGRLVQAGGSLRLSCAASGIIFYVYAMGWYRQAPGKERELVAAISSSGGSTYYADSVKGRFTISRDNAKNTVYLQMNSLKPEDSAVYYCAAVSSGYDDWGQGTQVTVTS”, the “polyreactivity (PSR sort gate)” value is recorded as “high polyreactivity”.
“QVQLVESGGRLVQAGGSLRLSCAASGIIIRKYARGWYRPAPGKVRELVAAITTRGSRTYSADSVKGRFTISRDNAKNTVYLQMNSLKPEDTAVYYCAADRYTVRMDYWGQGTQVTVSS”: the “polyreactivity (PSR sort gate)” value is on record as “high polyreactivity”.
